Molecular target: the molecule itself
Experiment: cryo-EM structure; purified wild-type SLC30A1 at 5 mg/mL in 25 mM Tris pH 8.0, 150 mM NaCl, 0.002% LMNG, 0.0004% CHS; C2 symmetry imposed; homodimer

B1: full-length human SLC30A1 protein (natural protein, UniProt Q9Y6M5 1-507, looked up)
chain: MGCWGRNRGRLLCMLALTFMFMVLEVVVSRVTSSLAMLSDSFHMLSDVLALVVALVAERFARRTHATQKNTFGWIRAEVMGALVNAIFLTGLCFAILLEAIERFIEPHEMQQPLVVLGVGVAGLLVNVLGLCLFHHHSGFSQDSGHGHSHGGHGHGHGLPKGPRVKSTRPGSSDINVAPGEQGPDQEETNTLVANTSNSNGLKLDPADPENPRSGDTVEVQVNGNLVREPDHMELEEDRAGQLNMRGVFLHVLGDALGSVIVVVNALVFYFSWKGCSEGDFCVNPCFPDPCKAFVEIINSTHASVYEAGPCWVLYLDPTLCVVMVCILLYTTYPLLKESALILLQTVPKQIDIRNLIKELRNVEGVEEVHELHVWQLAGSRIIATAHIKCEDPTSYMEVAKTIKDVFHNHGIHATTIQPEFASVGSKSSVVPCELACRTQCALKQCCGTLPQAPSGKDAEKTPAVSISCLELSNNLEKKPRRTKAENIPAVVIEIKNMPNKQPESSL
notes: SLC30A1 (zinc transporter 1), human, full-length cDNA with codon optimization; Homodimer in the cryo-EM structure; the C291 residues of the two protomers form a disulfide bond; also called WT SLC30A1; wild-type SLC30A1; source: HEK293F, transfected (pEZT vector), purified (Strep-Tactin beads, Superose 6 gel filtration) in LMNG/CHS
For B1, the “stoichiometry N” value was 2.

— PMC11633486, “The Intestinal Transporter SLC30A1 Plays a Critical Role in Regulating Systemic Zinc Homeostasis” (Advanced Science, 2024)
